In article PMC9993454:

Target: CD16a on NK cells of cynomolgus monkey peripheral blood (cynomolgus monkey (endogenous on NK cells of peripheral blood)) (UniProt Q8SPW2)
Assay: flow cytometry on cells; cynomolgus monkeys given HpmAb1/D1632 (0.5-20 mg/kg s.c., day 0) or IVIG (1 g/kg i.v., days 0 and 1) and anti-platelet antibody on day 1; blood NK cells (CD45+CD14-CD159a+) stained with Fc-competing anti-CD16 3G8 (unoccupied CD16a) and non-competing DJ130c (all CD16a); free ratio and receptor occupancy (RO) against baseline (day 0)

UniProt Q8SPW2, sequence (Q8SPW2 17-254): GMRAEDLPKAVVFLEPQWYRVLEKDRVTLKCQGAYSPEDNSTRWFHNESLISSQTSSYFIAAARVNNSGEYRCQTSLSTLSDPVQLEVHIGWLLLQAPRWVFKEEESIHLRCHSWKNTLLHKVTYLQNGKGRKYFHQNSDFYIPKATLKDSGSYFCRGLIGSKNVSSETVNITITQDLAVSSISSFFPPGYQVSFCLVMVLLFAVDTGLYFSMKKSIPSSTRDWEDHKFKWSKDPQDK

**Q.** For “Intravenous immunoglobulin (IVIG) (antibody)”, which free ratio (unoccupied CD16a on NK cells, % of baseline) on day 1 is on record?
**A.** Its free ratio (unoccupied CD16a on NK cells, % of baseline) on day 1 is 40.3%.
